Data reported in the domain aggregation screens of Martell et al. (2025).

Test: soluble fraction after stress (log2 fold change); higher = more stays soluble; pooled small domains, quantitative proteomics
Settings: stress: 75 degC
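Also: 20 min heating vs room temperature control held 20 min.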

Sequence: HMFIPMTDAQRHLFANKLAKLPELSEYSRGTESYEDFAIRIADMLLEPPKFRMFYPLLEQLGF
- soluble fraction (log2): -1.77

Sequence: HMGEVISRSYPLLKTKAKPAEVSEALQKLIKAPATVTFDEKNEVFHINATRLQHTWAEGYFKGLHGK
- soluble fraction (log2): -0.14

Sequence: HMVPPELEFLQSLMKIEDISELTAAIENNRDAVTDDFKEMLETVIENISGAPDTDPKLLERLKTIRTVLA
- soluble fraction (log2): -0.0936

Sequence: HMTPAKQVSAKAERWIDQLGSSDWEKREEAAAELKKLGGAAKSALEKALKNADPEVASKAEELLEALES
- soluble fraction (log2): 0.19

Sequence: HMPPNVLSEREQEVLQLAADGMSNKEMGSELYIAPTTVRDHMQSIMRKLQVNSRTAAAVAGLKLGLLD
- soluble fraction (log2): -0.452

Sequence: HMKKVIEFKDVSFAFEKKPILQDFNLLVQNKDRIGIVGDNGVGKSTLLNLIAERLQPQSGQVII
- soluble fraction (log2): 0.111

Sequence: HMKKTVTDSVELLTFLKDIFTNTSTNKLRKMLTTGRVTVNNIVIHKAKHILVQNDVVEIGDK
- soluble fraction (log2): -3.37

Sequence: HMGKEIEAPDFKNMTLKEAKIAAKEYKIRIKKGDEVVSEEVEKGRIVSQDPDAGTTIKTGSTVTVNISKGL
- soluble fraction (log2): 0.131

Sequence: HMAMTRTEYLNQLKHYLKRLPHTDYEEAMDYFKEYFEEAGPENEAQVIQDLGNPKEAAYEILSQLL
- soluble fraction (log2): -0.0595

Sequence: HMPPAPGHDLTEREREVLRLLVEGLSNQEISDRLVISQSTVKNHVSSVLSKLDAANRAEAVALALKNQL
- soluble fraction (log2): 0.0595

Sequence: HMSPTDKATVNVYALNVRTGPGTNYKVLGSVIKGTELQVLGSSGKWLKVKYGNREAYVAGWLVK
- soluble fraction (log2): -2.85

Sequence: HMDGDVAVKGGDGVLEVRLANAANVRVYNLAGRLMADYTGTELHMPLPKGVYMVVAGDNRTKVVV
- soluble fraction (log2): -0.476

Sequence: HMGPAYQTQRQEAFAALSEIAAKNPQLMQVAGDLVFRAADFPMADELADRLAKTLPPQLQDKKGQP
- soluble fraction (log2): -0.455

Sequence: HMREVGVPNLRGLTAEEAQIVLSNAGLNLRTEPIRRVHETITVGRIAEQDPMPDLTIRSQRSVTTWLSSGP
- soluble fraction (log2): 0.328

Sequence: HMSVTVPDVKRMQAEDAKALLSRYRLRSEVIDSVYVDNIPRGAVVEQIPRENSSVKENRIVFLTINSN
- soluble fraction (log2): -0.569

Sequence: HMQNELAEARSQLAERKNIDQAKLILMKKRNISEPEAYKLLRSHAMQTNRRVAEVAESIITAESLLG
- soluble fraction (log2): -0.0692

Sequence: HMATPTEHQLQAQARAVVEKAERLLDRASADDREDIINLIEKITDALAAEDFTAVKAPLAELSDILFYLE
- soluble fraction (log2): -0.104

Sequence: HMGTAVKAPMPGTILKVNVTAGQSVKAGDIMFILEAMKMENEIVAPSDGTVSQVVAAKGSSVATDDVLAYL
- soluble fraction (log2): -0.586

Sequence: HMLSTGIIIGDNVALRKTASSNGGIITRLDEGTVVKILASNVNAEWYQVEAGTKTGYVNRLYVNID
- soluble fraction (log2): -1.07

Sequence: HMLTQEEITRRRGEILTAAMGVILRKGFLETSMREIAEAAGVGKSTLYDYFPSKDEIMIAYVVD
- soluble fraction (log2): -0.97

Sequence: HMGYDDLEPFDANGRLRWSDQELVLAFGRHRGATLRTLELNDPSYLRWLLSGNGPLEQQDIQRLEQILES
- soluble fraction (log2): -1.55

Sequence: HMLNKRQAEILAEVSRLKEITPSELYKLQPNVSSRTLRRDMDVLVNKGLVSQDGSTKSTKYTYL
- soluble fraction (log2): 0.193

Sequence: HMESNWLTYAKRIQSIADTGMTFAVDDFDKERYQELADISSKMLADLSNIPIGRIENLLGPLGQ
- soluble fraction (log2): -1.11

Sequence: HMARHIHFEVHVQQAGRWSIHAQFGAGQREKAIEEAKKIEKTPGFDSVKVVKETYDSDLGNHQDTTIYRGP
- soluble fraction (log2): -1.18

Sequence: HMDMSVDQFNQGIRGSELYQQFIHGRGLQQPDGKTREWTDADRNAWRRTLEASGVRIPDGMKIDNAGNLNE
- soluble fraction (log2): 0.375

Sequence: HMPDLKIGKDHRLAEYIETKIAEDGYSPGAVLGEIKAKGLEFETEISKPTLYSYIDKGIFLTITNKELPV
- soluble fraction (log2): 0.25

Sequence: HMNDNQNKQMLWELLKDNRAFDNFDNKDYKTIIHLFNETVNTIDHRTPNLDLIKKNKIFIQDIMQKLSNL
- soluble fraction (log2): -1.46

Sequence: HMPKNRTDYVQDVLKSLGRPAHYKEITQIINAMLPKEAQYSAKSIQVVLGSSPLFIRVGTGTYALVE
- soluble fraction (log2): -1.73

Sequence: HMKQLIGYSVIDIKMGKLGEISFVNSKTAQALIHVSKDGKGFYFPWHKQFVKNIDAEKGIMEVEIPKEFLD
- soluble fraction (log2): -0.974

Sequence: HMADYSMDDNAWNAKKADIDEWFEANPDFSANKAITDGLFSIGDSQVEMRKRYWASIAGVFAGLPNSPIG
- soluble fraction (log2): 0.0121

Sequence: HMWAQSVSLHGLLGRQALLIVDGKPPRAVAPGQTHLGVTVLSTDEDRAVVALAGGQRLTLRVGESPVSVG
- soluble fraction (log2): -1.51

Sequence: HMTKPLHELLSQREFQVFTQLAAGRSVGEIAQQLSLSSNTVSTYRARILEKTGTRNDVELALYAIRR
- soluble fraction (log2): -2.31

Sequence: HMEPESTMIEISETLTNERLDRYLATKLPNVSRGGIQRLLREGNILVNGKKAKPTQHPVAGQKIEITWPNP
- soluble fraction (log2): -0.0291

Sequence: HMGETRWTYDDFGNILTEKAAPYSATEFLGKTYTYDTDNRYLKTVTDALGRTTTTLSYDKYGNPLSVMD
- soluble fraction (log2): 0.115

Sequence: HMSGPMVPNVVGLSEEMARALLSDYSITIKHAHDGVIPKDRVASQLPLATTHAKVGSSVVLTIS
- soluble fraction (log2): -0.557

Sequence: HMDSLEIEEPITVKSLSAASGLKISDIIRKLMQEGIMATANQVIDREQAEAVLIDYNVDLVVKR
- soluble fraction (log2): -0.281

Sequence: HMENNIPANIKALIISYVNQNYPGAVIHSIERNSNGTYDVEIYYNNREYDLLFDAQGNFISGNVDDQ
- soluble fraction (log2): -0.0333

Sequence: HMDQPLIEPLSERELEVLSLIAAGYSNAEIAERLVIAVGTVKRHINNLYGKLGAGSRTQALAIAREIGLM
- soluble fraction (log2): -0.107

Sequence: HMFDLKKIYGTILDETKSSLLLSTDDGREVQIIKTDGTEVLASGLGVYVEVAYRDETPDGYPIALTI
- soluble fraction (log2): -0.41

Sequence: HMEEIDLTPAEEILNKLPDNSRGYLIPTLNKIQNAYRFLPDPAMELLMEFFNVSRAEIFGVISFYPQLMI
- soluble fraction (log2): -0.127

Sequence: HMTNKYSSLVIGTVKTIMEEDQYKNLMGPPLKKEIIKQVDKFTNALPIEFDQNDKDFYVKKILINL
- soluble fraction (log2): -0.377

Sequence: HMRALPFSFANRHGVLIREISDGVAHAVYRIGSSPLGLAEARRFVGMPLMLTPVAREAFDSLLQQTYEQG
- soluble fraction (log2): -2.39

Sequence: HMLVVEPSAELKTIIDKTASFVARNGPEFEARIKNEQNNAKFSFLQPNDPFNPYYRAKIVELGGTV
- soluble fraction (log2): 0.0126

Sequence: HMATVTVPNLKGMTPSGAESALAELNLKGAVGDSVESNDVENGKVASQDQAAGSDAKEGDTITYHLSS
- soluble fraction (log2): 0.235

Sequence: HMTGMEAAEFGKRIMKLRKQKGMTQSKLAEQINVSNKAISRWETGEGFPEITLLKPLAKALGTTVDELFGE
- soluble fraction (log2): -0.334

Sequence: HMDGEINPYTGREYVTNSVRMHPRRIGYVQVYSRKDHKWTDMTEWAFLGEQERKKVLLGKAYEPPVYL
- soluble fraction (log2): -1.91

Sequence: HMTSLGLEGLVNTTAIATSDLRPSGWALAGERKIFVVSEGEFIDNGDKIRILTVDGNRIVVRKETNK
- soluble fraction (log2): -0.477

Sequence: HMTGQLTEEELKQRQERAMSNPEIQGILSDPVMRQVLQDMSTDPKAAAEHQRNPTIMAKIQKLINAGIVQV
- soluble fraction (log2): 0.00889

Sequence: HMSVTYRYSYVYNGNTYSDGWSVRRAIENNENKRFGPEPSDLDHEAQKQARVTFWAEHGVEYKEQEVV
- soluble fraction (log2): -1.24

Sequence: HMTSEVPVGSNVRIRASTLAGERDFEGTMLPPAGEGLTTLKLVNGYNLSYPSKDVLDIEFLGGAGE
- soluble fraction (log2): 0.14

Sequence: HMNPGHAERGKEIVEVFLRNNGELSMREIAEKSNITITQARRRVNKLLDQGIVEATAPVQSRNRKYRIK
- soluble fraction (log2): 0.186

Sequence: HMPNIQLARNLKYLRLAYGLTQDDLGAFLNISRQAYSNYENLKRSPDLDSLIRLASLYHLSLDDLVSR
- soluble fraction (log2): -3.31

Sequence: HMTANPSTEEIMARVEAIPLPIKRLPPGQIVQAQTVAATVLRSNPGLDLAKAWKLAYATVTGQE
- soluble fraction (log2): -0.15

Sequence: HMFMMVAGHLQIKNEKYYMVLELRTEQGERKTKWIGTGLAVKGNKRRAEAMLEETRTKYLSPV
- soluble fraction (log2): -2.18

Sequence: HMTNVVSKNKAKEIAMNIINDTVLQGQTAATFKEIVKANGVYVVKIEIQGQEYTSYITKDGKIVFPYGVEV
- soluble fraction (log2): -1.07

Sequence: HMIELEGVISSVLAGTMFKVKLRGNGHEVLAHISGKMRKKFIRLVIGDAVKIEMSPYDMDKARIVYRI
- soluble fraction (log2): -0.318

Sequence: HMILKNVTSDLANKRLDKVASILFQTYSRTQIKKWILEGRVLVNGEISNPKDHVHENDEIEINPI
- soluble fraction (log2): -1.9

Sequence: HMALGRTGEVYLPIPAGRAGHGKISITLQGALREVDAVTAGEALPRGTSVRVVDVAGNGVLLVEK
- soluble fraction (log2): -0.206

Sequence: HMRDTLSKQLLTEEMVLQFIREMREHDPGIGGEKLHAMYLGRFGRDYEYMVGRDKMEMIIAENNLNVR
- soluble fraction (log2): -0.996

Sequence: HMNSTVKVPNVVGMSVPQAKALLEQNHLLVQGIREVSTDKAPAGIVINQLPYSDAEVKEERHIYLTVSKGK
- soluble fraction (log2): 0.968

Sequence: HMEVSKETFPAYVAVDSLPVYKSASTSSSKVTTIDFGREVTVVETRGGWAKIQYGSYKGFAEIEGMSKN
- soluble fraction (log2): -1.06

Sequence: HMHGTIHSAAYGGDIEAVKKFLAAGADVNANGGGRTPLDLAIQVKNTEIADLLRKHGGKTGDELKA
- soluble fraction (log2): 0.547

Sequence: HMKQISNTDELEAMIQKIIEDNSQQVEKFRSGNEKLFGWFVGQVMKNTQGAANPKVVNEILKKSLK
- soluble fraction (log2): 0.318

Sequence: HMVQVRQPAGAGDLFAKGRLHLSTGTIHTVKPLEVDLPKGRLTVVTGVSGSGKTTLILESLLPALAAAAA
- soluble fraction (log2): 0.377

Sequence: HMGAGDKQAQQASLMQIIALQKEGMALGLVEPKHLYHSFSKMIENAGFKDVQSFAVDPSTQQ
- soluble fraction (log2): -0.0432

Sequence: HMVQIVINKEVQTTSQTILRENAGTSSRNIGYVDPNVKLRATLDRNSFYFIPEKKGWIMKSRVKLIEDLS
- soluble fraction (log2): -3.77

Sequence: HMDLKSLEFAIVENVQRHDLNPLEEAQGYKRLIDEFSYDQDKVSKFIGKSRSYITNSLRLLNLPLEVLEF
- soluble fraction (log2): 0.125

Sequence: HMFELVKISENIPIRDLAETLKTTPNEIIKELMVFGVLANINQTLNFDLASKVADKLGFEVELL
- soluble fraction (log2): -0.266

Sequence: HMGTAEDYLLPRRAEILSIIRDHEFANFDLIRRRFLAVNERTLRYDLKKLSDLGLIKKLGKTRGVYYRAAK
- soluble fraction (log2): -1.84

Sequence: HMPKAKASARNDTRTRLLTIGTEVLSQKGFASTGVEEILSVAGVPKGAFYYYFESKAAFGLAVIENYE
- soluble fraction (log2): 0.259

Sequence: HMGVKTDKYYYQMATETRVNKHYGLSNQYIATLISEYPRSPLIPNASILSKKNNADLALIDQSINQR
- soluble fraction (log2): -0.515

Sequence: HMLFKGDTREENVILEFLSKNGTTSSDAIIKQTGLSASEFNQAITMLELKGLALNNGGEKWSL
- soluble fraction (log2): 0.304

Sequence: HMTLDDSFYQKADEIIANHTKEERSLIPIIQDIQAEYRYLPPELLTYVAKEIGITDARAYSVASFYENFS
- soluble fraction (log2): -0.521

Sequence: HMVEVPNVIGMTKPELTQQFVNLKLDGSGEGDVVVQQSPSEGSKVKEGSTVRVYFG
- soluble fraction (log2): 0.128

Sequence: HMISQLRGKVLGTDRDALVIDVGGVGFRVSATAGARALAGQSGNEARLFTEMVVREDSIDLFGF
- soluble fraction (log2): 0.0812

Sequence: HMTELSLSEQAYQQLRRMIVRLDFAPGDVLREEALQEALGMSRTPIREALQRLAREHFVTVIPRRGMFVS
- soluble fraction (log2): -3.15

Sequence: HMDDPISSMVNRIRLAFGLSVTDLAAVLGVERPTIYSWLKDGSTPAPARLTRVRQVLSLADTW
- soluble fraction (log2): -0.729
